Experimental data reported in article PMC4436786.
Where “and” joins values, the source holds several entries; their conditions need not be identical. Equal values may be shown once.

Legend:
[1] = molecular target: AtSfh5 nodulin (soluble, recombinant) (Arabidopsis thaliana); test: SEC
[2] = molecular target: AtSfh8 nodulin (soluble, recombinant) (Arabidopsis thaliana); test: SEC
[3] = molecular target: His-tagged AtSfh1 nodulin (recombinant, solubilized in 8 M urea) (Arabidopsis thaliana); test: SDS-PAGE
[4] = molecular target: His-tagged AtSfh3 nodulin (soluble, recombinant) (Arabidopsis thaliana); test: SEC
[5] = molecular target: mRFP-AtSfh1 nodulin (WT) (Arabidopsis thaliana); test: SEC
[6] = molecular target: mRFP-AtSfh1^E485P,Q534P nodulin (Arabidopsis thaliana); test: SEC
[7] = molecular target: myc-tagged AtSfh1 nodulin (Arabidopsis thaliana); test: SEC

Sequence of His-tagged AtSfh1 nodulin (recombinant, solubilized in 8 M urea) (domain or fragment) (F4JLE5 whole entry, the tested form may be a part): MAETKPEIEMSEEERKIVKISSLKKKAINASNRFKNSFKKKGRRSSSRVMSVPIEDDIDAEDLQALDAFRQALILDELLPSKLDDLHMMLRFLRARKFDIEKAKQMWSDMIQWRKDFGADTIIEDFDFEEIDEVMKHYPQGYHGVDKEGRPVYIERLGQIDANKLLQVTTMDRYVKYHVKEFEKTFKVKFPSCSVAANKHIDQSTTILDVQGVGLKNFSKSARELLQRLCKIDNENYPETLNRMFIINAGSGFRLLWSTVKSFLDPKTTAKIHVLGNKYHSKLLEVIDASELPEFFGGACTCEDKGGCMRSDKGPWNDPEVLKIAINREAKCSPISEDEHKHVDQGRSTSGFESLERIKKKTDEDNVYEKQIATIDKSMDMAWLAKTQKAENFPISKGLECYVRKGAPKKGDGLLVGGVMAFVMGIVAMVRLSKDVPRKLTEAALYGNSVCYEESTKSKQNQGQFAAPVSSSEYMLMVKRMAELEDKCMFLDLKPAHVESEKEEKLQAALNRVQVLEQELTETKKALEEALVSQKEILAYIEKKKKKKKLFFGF
Sequence of AtSfh8 nodulin (soluble, recombinant) (domain or fragment) (F4IHJ0 whole entry, the tested form may be a part): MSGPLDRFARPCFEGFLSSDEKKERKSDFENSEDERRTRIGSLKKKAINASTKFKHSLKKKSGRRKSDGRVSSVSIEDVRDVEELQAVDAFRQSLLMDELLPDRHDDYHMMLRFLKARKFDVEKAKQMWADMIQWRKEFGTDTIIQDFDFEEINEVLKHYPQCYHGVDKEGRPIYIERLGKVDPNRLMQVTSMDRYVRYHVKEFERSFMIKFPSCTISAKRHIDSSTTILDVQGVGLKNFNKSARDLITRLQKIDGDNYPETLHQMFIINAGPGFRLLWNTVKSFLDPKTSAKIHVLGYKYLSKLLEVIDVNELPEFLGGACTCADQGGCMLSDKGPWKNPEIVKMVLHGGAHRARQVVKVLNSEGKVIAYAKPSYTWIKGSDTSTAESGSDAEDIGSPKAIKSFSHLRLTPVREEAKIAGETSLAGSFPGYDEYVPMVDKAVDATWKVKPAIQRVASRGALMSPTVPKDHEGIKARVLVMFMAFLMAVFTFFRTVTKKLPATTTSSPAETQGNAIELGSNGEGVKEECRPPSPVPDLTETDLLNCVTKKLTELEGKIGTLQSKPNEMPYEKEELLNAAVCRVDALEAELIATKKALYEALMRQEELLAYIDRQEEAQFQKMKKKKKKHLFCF
Sequence of AtSfh5 nodulin (soluble, recombinant) (domain or fragment) (Q8GXC6 whole entry, the tested form may be a part): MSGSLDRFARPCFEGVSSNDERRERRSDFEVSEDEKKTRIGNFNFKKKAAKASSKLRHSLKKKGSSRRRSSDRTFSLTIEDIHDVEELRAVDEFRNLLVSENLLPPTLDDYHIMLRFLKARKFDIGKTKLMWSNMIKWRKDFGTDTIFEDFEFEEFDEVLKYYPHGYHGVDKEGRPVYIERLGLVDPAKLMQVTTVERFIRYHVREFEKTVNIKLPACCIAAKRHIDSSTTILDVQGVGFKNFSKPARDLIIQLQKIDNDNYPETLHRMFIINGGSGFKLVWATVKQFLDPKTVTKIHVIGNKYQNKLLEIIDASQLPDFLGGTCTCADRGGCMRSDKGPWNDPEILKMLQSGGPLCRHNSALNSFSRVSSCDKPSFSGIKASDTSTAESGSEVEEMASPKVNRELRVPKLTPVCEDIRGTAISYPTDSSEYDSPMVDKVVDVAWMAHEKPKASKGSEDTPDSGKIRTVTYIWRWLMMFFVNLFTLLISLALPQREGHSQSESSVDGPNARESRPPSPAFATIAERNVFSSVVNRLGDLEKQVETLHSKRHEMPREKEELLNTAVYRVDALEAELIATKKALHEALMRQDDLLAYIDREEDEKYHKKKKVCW
Sequence of His-tagged AtSfh3 nodulin (soluble, recombinant) (domain or fragment) (Q93ZE9 whole entry, the tested form may be a part): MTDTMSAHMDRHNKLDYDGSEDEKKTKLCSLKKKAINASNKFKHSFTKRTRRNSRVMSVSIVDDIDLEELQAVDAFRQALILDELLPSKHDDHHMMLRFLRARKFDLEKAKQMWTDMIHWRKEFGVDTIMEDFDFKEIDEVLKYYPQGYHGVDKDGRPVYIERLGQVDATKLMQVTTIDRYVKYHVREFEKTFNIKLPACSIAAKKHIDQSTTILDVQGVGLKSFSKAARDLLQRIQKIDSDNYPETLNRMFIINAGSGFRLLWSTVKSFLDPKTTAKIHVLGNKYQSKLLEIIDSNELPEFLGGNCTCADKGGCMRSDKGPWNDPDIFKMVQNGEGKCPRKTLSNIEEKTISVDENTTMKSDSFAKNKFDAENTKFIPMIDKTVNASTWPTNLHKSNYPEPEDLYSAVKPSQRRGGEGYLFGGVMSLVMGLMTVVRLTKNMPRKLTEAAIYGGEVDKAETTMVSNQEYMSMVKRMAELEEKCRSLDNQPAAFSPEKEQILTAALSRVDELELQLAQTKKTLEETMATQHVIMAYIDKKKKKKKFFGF

Q: “AtSfh5 nodulin (soluble, recombinant) (domain or fragment)” was tested. Which stoichiometry N [1] did it give?
A: The stoichiometry N was 6.

Q: “AtSfh8 nodulin (soluble, recombinant) (domain or fragment)” was tested. Which stoichiometry N [2] did it give?
A: The stoichiometry N was 6.

Q: How did the stoichiometry N [3] turn out when “His-tagged AtSfh1 nodulin (recombinant, solubilized in 8 M urea) (domain or fragment)” was run?
A: The stoichiometry N was 8.

Q: For “His-tagged AtSfh3 nodulin (soluble, recombinant) (domain or fragment)”, which stoichiometry N [4] is on record?
A: Its stoichiometry N is 6.

Q: Which stoichiometry N [5] does the source give for “mRFP-AtSfh1 nodulin (WT) (domain or fragment)” here?
A: The stoichiometry N was 4.

Q: Which stoichiometry N [6] does the source give for “mRFP-AtSfh1^E485P,Q534P nodulin (domain or fragment)” here?
A: The stoichiometry N was 2.

Q: With “myc-tagged AtSfh1 nodulin (domain or fragment)” as the substance, how does the stoichiometry N [7] read?
A: Its stoichiometry N is 6 and 8.
